Reference: the Immune Epitope Database (IEDB)
Values belong to the sequence of their own block, whether it stands above or below them.

Columns and labels:
[1] = target: HLA-B*53:01; assay: IEDB peptide-MHC binding, purified MHC/competitive/radioactivity; filed as Kd, often an IC50 or EC50 that approximates it; ≥ and ≤ were set here for values at or beyond the usual limits of such assays; conditions: source organism: Dengue virus 2 Jamaica/1409/1983
[2] = target: HLA-B*15:01; assay: as above
[3] = target: HLA-B*51:01; assay: as above
[4] = target: HLA-B*39:01; assay: IEDB peptide-MHC binding, purified MHC/competitive/fluorescence; filed as Kd, often an IC50 or EC50 that approximates it; ≥ and ≤ were set here for values at or beyond the usual limits of such assays; conditions: source organism: Homo sapiens
[5] = target: HLA-A*69:01; assay: as above; conditions: source organism: Homo sapiens
[6] = target: HLA-B*15:17; assay: as above; conditions: source organism: Homo sapiens
[7] = target: HLA-A*24:03; assay: IEDB peptide-MHC binding, purified MHC/direct/fluorescence; filed as Kd, often an IC50 or EC50 that approximates it; ≥ and ≤ were set here for values at or beyond the usual limits of such assays
[8] = target: HLA-B*27:05; assay: as above
[9] = target: HLA-A*03:01; assay: as above
[10] = target: HLA-A*69:01; assay: as above
[11] = target: HLA-A*26:01; assay: as above
[12] = target: HLA-A*31:01; assay: as above
[13] = target: HLA-A*01:01; assay: as above
[14] = target: HLA-A*02:01; assay: as above
[15] = target: HLA-B*07:02; assay: as above
[16] = target: HLA-B*08:01; assay: as above
[17] = target: HLA-B*58:01; assay: as above
[18] = target: HLA-B*15:01; assay: as above
[19] = target: HLA-A*11:01; assay: as above
[20] = target: HLA-B*40:01; assay: as above
[21] = target: HLA-A*32:01; assay: IEDB peptide-MHC binding, purified MHC/competitive/radioactivity; filed as Kd, often an IC50 or EC50 that approximates it; ≥ and ≤ were set here for values at or beyond the usual limits of such assays
[22] = target: HLA-A*03:01; assay: as above; conditions: source organism: Dengue virus 2 Jamaica/1409/1983
[23] = target: HLA-A*26:01; assay: as above; conditions: source organism: Dengue virus 2 Jamaica/1409/1983
[24] = target: HLA-A*30:02; assay: as above
[25] = target: HLA-A*01:01; assay: as above
[26] = target: HLA-A*11:01; assay: as above; conditions: source organism: Dengue virus 2 Jamaica/1409/1983
[27] = target: HLA-A*02:01; assay: IEDB peptide-MHC binding, purified MHC/competitive/fluorescence; ≥ and ≤ were set here for values at or beyond the usual limits of such assays
[28] = target: HLA-A*24:02; assay: as above
[29] = target: HLA-B*44:02; assay: IEDB peptide-MHC binding, purified MHC/direct/fluorescence; filed as Kd, often an IC50 or EC50 that approximates it; ≥ and ≤ were set here for values at or beyond the usual limits of such assays
[30] = source organism: Vaccinia virus WR
[31] = source organism: Dengue virus 2 Jamaica/1409/1983
[32] = source organism: Pseudomonas viridiflava
[33] = source organism: Dengue virus 4 Philippines/H241/1956
[34] = source organism: Vaccinia virus Copenhagen
[35] = source organism: Dengue virus 3 Martinique/1243/1999
[36] = source organism: Zaire ebolavirus
[37] = source organism: Giardia lamblia ATCC 50803
[38] = source organism: Brucella abortus

Sequence: NAVILQNAW
- Kd [1]: 0.0806 µM

Sequence: YACKQILHG
- Kd [2, 30]: 2.27 µM

Sequence: DPRRCLKPVI
- Kd ([3]; source organism: Dengue virus 1 Brazil/97-11/1997): 10.5 µM

Sequence: MPSVIEKMET
- Kd [1]: 1.61 µM
- Kd [3, 31]: 9.48 µM

- Kd [4]: ≥ 20 µM
- Kd [5]: ≥ 20 µM
- Kd [6]: ≥ 20 µM
Sequence: GPSPSHKSV

- Kd [7, 32]: ≥ 20 µM
- Kd [8, 32]: ≥ 20 µM
- Kd [9, 32]: ≥ 20 µM
- Kd [10, 32]: ≥ 20 µM
- Kd [11, 32]: ≥ 20 µM
- Kd [12, 32]: ≥ 20 µM
- Kd [13, 32]: ≥ 20 µM
- Kd [14, 32]: ≥ 20 µM
- Kd [15, 32]: ≥ 20 µM
- Kd [16, 32]: ≥ 20 µM
- Kd [17, 32]: ≥ 20 µM
- Kd [18, 32]: ≥ 20 µM
- Kd [19, 32]: ≥ 20 µM
- Kd [20, 32]: ≥ 20 µM
Sequence: DYDQRDYGF

Sequence: GTLALSLTF
- Kd [2, 33]: 0.0362 µM
- Kd [21, 33]: 1.37 µM

Sequence: TIMAAILAY
- Kd [22]: 0.0288 µM
- Kd [23]: 0.156 µM
- Kd [24, 31]: 0.117 µM
- Kd [25, 31]: ≥ 26.6 µM
- Kd [2, 31]: 0.0733 µM
- Kd [26]: 0.164 µM

Sequence: MVYKLVLLF
- Kd [2, 34]: 0.0705 µM
- Kd [21, 34]: 0.33 µM

Sequence: VTRGAVLTY
- Kd [24, 35]: ≥ 76.9 µM
- Kd [25, 35]: 3.11 µM
- Kd [2, 35]: 0.03 µM

- Kd ([7]; source organism: Rhodococcus erythropolis): 0.0006 µM
Sequence: MYLRTIYDL

Sequence: FLLQLNETI
- IC50 [27, 36]: 0.33 µM
- IC50 [28, 36]: 0.862 µM

Sequence: ATPPSLVHF
- Kd [7, 37]: 0.152 µM

Sequence: AVFMLMETM
- Kd [2, 30]: 0.026 µM

Sequence: IHKPRPPAT
- Kd [29, 37]: ≥ 20 µM
- Kd [8, 37]: ≥ 20 µM
- Kd [9, 37]: ≥ 20 µM
- Kd [10, 37]: ≥ 20 µM
- Kd [11, 37]: ≥ 20 µM
- Kd [12, 37]: ≥ 20 µM
- Kd [13, 37]: ≥ 20 µM
- Kd [14, 37]: ≥ 20 µM
- Kd [15, 37]: ≥ 20 µM
- Kd [16, 37]: ≥ 20 µM
- Kd [17, 37]: ≥ 20 µM
- Kd [18, 37]: ≥ 20 µM
- Kd [19, 37]: ≥ 20 µM
- Kd [20, 37]: ≥ 20 µM

Sequence: KQITNELNY
- Kd [24, 33]: 0.00999 µM
- Kd [2, 33]: 0.00756 µM

Sequence: PPFGDSYIV
- Kd [3, 33]: ≥ 23.1 µM

Sequence: SFLLMLCLH
- IC50 [28, 36]: ≥ 266 µM

Sequence: IYTLEYDGF
- Kd ([7]; source organism: Mycobacterium tuberculosis): 0.0748 µM

Sequence: VSKKEGGAMY
- Kd [24, 31]: ≥ 69.7 µM
- Kd [25, 31]: 19.9 µM
- Kd [2, 31]: 0.0848 µM

Sequence: VFLPNPAFI
- IC50 ([27]; source organism: Variola virus): 0.715 µM
- IC50 ([28]; source organism: Variola virus): 18.5 µM

Sequence: AENGWGFYF
- Kd [29, 38]: 6.42 µM
- Kd [8, 38]: ≥ 20 µM
- Kd [9, 38]: ≥ 20 µM
- Kd [10, 38]: ≥ 20 µM
- Kd [11, 38]: ≥ 20 µM
- Kd [12, 38]: ≥ 20 µM
- Kd [13, 38]: ≥ 20 µM
- Kd [14, 38]: ≥ 20 µM
- Kd [15, 38]: ≥ 20 µM
- Kd [16, 38]: ≥ 20 µM
- Kd [17, 38]: ≥ 20 µM
- Kd ([18]; source organism: Brucella suis): 0.285 µM
- Kd [19, 38]: ≥ 20 µM
- Kd ([20]; source organism: Brucella suis): 0.0289 µM
